Data reported in US20050181995A1 (NEC SOFT, published 2005).

How the values were obtained:
[1] = molecular target: T1, Flt-1-IgG (UniProt P17948 27-687); assay: SPR (BIAcore 3000), receptor-IgG immobilised on CM5 chip
T1 construct: Immobilised on CM5 chip by amine coupling; also called Flt-1-lgG; Flt-1-lg; not shown: IgG part of the fusion

[2] = molecular target: T2, KDR-IgG (UniProt P35968 20-764); assay: SPR (BIAcore 3000), KDR-IgG immobilised on CM5 chip
T2 construct: Immobilised on CM5 chip by amine coupling; also called KDR-lgG; VEGF receptor 2; not shown: IgG part of the fusion

[3] = molecular target: T2, KDR-IgG; assay: SPR (BIAcore 3000), KDR-IgG immobilised on CM5 chip; kdiss/kass
Experimental: An apparatus for measurement based on surface plasmon resonance technique: BlAcore 3000 (Biosensor) was used to evaluate the properties of binding to and dissociation from a VEGF receptor as for a VEGF-like protein. Experiment for analysis of the receptor binding was conducted at 25° C. using an HBS buffer (10 mM HEPES, pH 7.4, 150 mM NaCl, 3 mM EDTA, 0.005% polysorbate 20). Flt-1-lgG and KDR-lgG were immobilized on a CM5 sensor chip using an amine coupling kit (Biosensor), respectively.
They were injected into a flow cell at a flow rate of 20 μL/min. A signal from a blank flow channel as a negative control was subtracted as a background signal from the signal from the sample flow channel, for background correction. In the association process, while injecting a solution with the above protein concentration on the sensor chip at the above flow rate, increase in the resonance signal was detected. In the dissociation process, while injecting the above buffer on the sensor chip at the above flow rate, decrease in the resonance signal was measured.
A rate constant for association (kₐₛₛ), a rate constant for dissociation (kdiss) and the maximum binding amount (Rₘₐₓ) for binding to a VEGF receptor in each VEGF-like protein were calculated using a BIA evaluation 3.1 curve fitting software (Biosensor). An apparent dissociation constant (Kd) was calculated as a ratio of the rate constants (kdiss/kₐₛₛ) from the calculated values.

[4] = molecular target: T3, Flt-4 (VEGF receptor type 3) (UniProt P35916 25-776); assay: SPR (BIAcore 3000), receptor immobilised on CM5 chip
T3 construct: Immobilised on CM5 chip; printed without an IgG suffix; also called VEGF receptor 3
T3 sequence: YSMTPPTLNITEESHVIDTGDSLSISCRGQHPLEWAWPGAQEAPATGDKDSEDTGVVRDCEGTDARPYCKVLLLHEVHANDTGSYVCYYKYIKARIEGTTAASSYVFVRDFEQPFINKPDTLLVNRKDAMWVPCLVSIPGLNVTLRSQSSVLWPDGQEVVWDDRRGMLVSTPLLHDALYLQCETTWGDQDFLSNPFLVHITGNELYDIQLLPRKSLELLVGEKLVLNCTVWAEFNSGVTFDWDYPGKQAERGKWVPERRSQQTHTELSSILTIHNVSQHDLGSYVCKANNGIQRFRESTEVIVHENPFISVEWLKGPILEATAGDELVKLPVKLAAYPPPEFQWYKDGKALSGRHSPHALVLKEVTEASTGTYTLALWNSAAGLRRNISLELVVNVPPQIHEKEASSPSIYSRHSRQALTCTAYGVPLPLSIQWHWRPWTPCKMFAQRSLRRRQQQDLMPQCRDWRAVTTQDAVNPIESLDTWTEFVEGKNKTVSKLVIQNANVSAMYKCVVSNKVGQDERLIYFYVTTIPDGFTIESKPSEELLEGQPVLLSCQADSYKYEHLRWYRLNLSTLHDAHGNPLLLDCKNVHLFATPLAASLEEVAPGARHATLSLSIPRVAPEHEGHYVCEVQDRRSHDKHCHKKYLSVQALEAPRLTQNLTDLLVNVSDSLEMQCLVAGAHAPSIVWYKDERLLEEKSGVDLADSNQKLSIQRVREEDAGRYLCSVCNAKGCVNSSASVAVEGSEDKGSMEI

T2 sequence (P35968 20-764 limits assumed): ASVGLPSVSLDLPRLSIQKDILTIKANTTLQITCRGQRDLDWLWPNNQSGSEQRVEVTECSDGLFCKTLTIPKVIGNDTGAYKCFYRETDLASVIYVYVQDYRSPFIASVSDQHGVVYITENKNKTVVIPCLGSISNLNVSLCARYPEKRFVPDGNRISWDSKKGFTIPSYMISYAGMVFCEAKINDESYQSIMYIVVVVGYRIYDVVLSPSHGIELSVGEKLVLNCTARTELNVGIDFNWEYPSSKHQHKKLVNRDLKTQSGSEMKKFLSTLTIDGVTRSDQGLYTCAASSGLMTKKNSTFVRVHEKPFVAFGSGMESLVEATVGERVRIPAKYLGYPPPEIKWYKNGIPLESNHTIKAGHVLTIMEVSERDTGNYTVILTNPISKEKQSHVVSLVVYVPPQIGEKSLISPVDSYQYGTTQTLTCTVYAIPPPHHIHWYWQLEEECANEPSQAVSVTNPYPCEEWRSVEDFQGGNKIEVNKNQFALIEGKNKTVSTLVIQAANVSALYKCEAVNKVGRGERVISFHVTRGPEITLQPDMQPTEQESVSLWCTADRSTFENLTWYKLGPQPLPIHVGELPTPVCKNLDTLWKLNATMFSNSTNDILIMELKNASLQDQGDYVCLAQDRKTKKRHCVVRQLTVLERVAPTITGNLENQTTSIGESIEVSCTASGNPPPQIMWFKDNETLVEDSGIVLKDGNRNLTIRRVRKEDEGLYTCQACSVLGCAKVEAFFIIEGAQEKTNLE
T1 sequence (P17948 other isoform, or with tags, fused parts or gaps limits assumed): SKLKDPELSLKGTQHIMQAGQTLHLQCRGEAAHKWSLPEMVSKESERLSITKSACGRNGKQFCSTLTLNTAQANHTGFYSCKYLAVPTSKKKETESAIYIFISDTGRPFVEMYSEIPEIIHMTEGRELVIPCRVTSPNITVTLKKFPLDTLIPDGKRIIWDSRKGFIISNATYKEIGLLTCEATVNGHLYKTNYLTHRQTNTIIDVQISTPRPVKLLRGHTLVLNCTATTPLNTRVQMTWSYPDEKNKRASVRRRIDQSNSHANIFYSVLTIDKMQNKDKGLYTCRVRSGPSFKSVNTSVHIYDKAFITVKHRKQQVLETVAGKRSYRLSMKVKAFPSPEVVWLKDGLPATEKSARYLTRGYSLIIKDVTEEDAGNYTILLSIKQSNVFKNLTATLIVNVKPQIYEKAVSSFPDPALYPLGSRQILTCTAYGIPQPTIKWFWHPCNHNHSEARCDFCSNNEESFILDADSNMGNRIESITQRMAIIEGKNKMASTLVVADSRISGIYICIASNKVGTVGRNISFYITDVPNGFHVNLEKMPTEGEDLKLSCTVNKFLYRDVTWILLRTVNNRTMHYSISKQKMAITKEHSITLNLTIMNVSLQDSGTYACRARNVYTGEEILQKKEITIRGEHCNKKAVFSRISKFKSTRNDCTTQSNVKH

B1: VR-1 (VEGF-like protein purified from the venom of Daboia russelli russelli) (ligand)
chain: EVRPFLDVYQRSACQTRETLVSILQEHPDEISDIFRPSCVAVLRCSGCCTDESMKCTPVGKHTADIQIMRMNPRTHSSKMEVMKFMEHTACECRPRWKQGEPEGPKEPR
modifications: pyrrolidone ring at N-terminus (opened with methanol-hydrochloric acid for sequencing)
notes: also called VR-1 protein
In the case of B1, the binding result [1] is reported as “no binding (tested: 3, 10 and 30 nM)”, the koff [2] is reported as 1.29e-05 s⁻¹ and the kon [2] is reported as 39000 M⁻¹ s⁻¹. It also gave a Kd [3] of 0.332 nM.

B2: vammin (VEGF-like protein purified from the venom of Vipera ammodytes ammodytes) (ligand)
chain: EVRPFLEVHERSACQARETLVPILQEYPDEISDIFRPSCVAVLRCSGCCTDESLKCTPVGKHTVDLQIMRVNPRTQSSKMEVMKFTEHTACECRPRRKQGEPDGPKEKPR
modifications: pyrrolidone ring at N-terminus (opened with methanol-hydrochloric acid for sequencing)
notes: also called vammin protein
For B2, the binding result [1] was “no binding (tested: 3, 10 and 30 nM)”, the koff [2] was 4.6e-06 s⁻¹ and the kon [2] was 11200 M⁻¹ s⁻¹. The binding result [4] was “no binding (tested: 500 nM)” and the Kd [3] was 0.411 nM.

B3: HF (hypotensive factor from the venom of Vipera aspis aspis) (ligand)
chain: EVRPFLEVHERSACQARETLVSILQEYPDEISDIFRPSCVAVLRCSGCCTDESLKCTPVGKHTVDLQIMRVNPRTQSSKMEVMKFTEHTACECRPRRKQGEPDGPKEKPR
notes: also called HF protein
In the case of B3, the binding result [1] is reported as “no binding (tested: 3, 10 and 30 nM)”, the koff [2] is reported as 9.6e-06 s⁻¹ and the kon [2] is reported as 28800 M⁻¹ s⁻¹. It also gave a Kd [3] of 0.334 nM.
